Experimental data as given in patent publication US20240043507A1 (RQ BIOTECHNOLOGY, published 2024).

Tests used:
[1] = biological target: spike protein of SARS-CoV-2 strain Victoria (SARS-CoV-2/human/AUS/VIC01/2020) (SARS-CoV-2, UniProt P0DTC2 14-1273); experiment: cell-based or functional assay
[2] = biological target: spike protein of SARS-CoV-2 strain B.1.1.7 (SARS-CoV-2, UniProt P0DTC2 14-1273); experiment: cell-based or functional assay
[3] = biological target: spike protein of SARS-CoV-2 strain B.1.351 (SARS-CoV-2, UniProt P0DTC2 14-1273); experiment: cell-based or functional assay
[4] = biological target: spike protein of SARS-CoV-2 strain P.1 (SARS-CoV-2, UniProt P0DTC2 14-1273); experiment: cell-based or functional assay
[5] = biological target: T1, SARS-CoV-2 receptor binding domain with N501Y (SARS-CoV-2, UniProt P0DTC2 330-532); experiment: BLI, RBD immobilised on AR2G biosensor, 1:1 fit
T1 construct: range 330-532; also called RBD-N501Y; RBD N501Y

[6] = biological target: T2, SARS-CoV-2 spike protein on authentic virus, strain SARS-CoV-2/human/AUS/VIC01/2020 (Victoria) (SARS-CoV-2, UniProt P0DTC2 14-1273); experiment: cell-based or functional assay
[7] = biological target: T2, SARS-CoV-2 spike protein on authentic …; experiment: whole-virus capture ELISA, half-maximal binding
[8] = biological target: T2, SARS-CoV-2 spike protein on authentic …; experiment: calculated from whole-virus ELISA binding and FRNT50

Row | Binder | IC50 (FRNT neutralisation) [1] | IC50 (FRNT neutralisation) [2] | IC50 (FRNT neutralisation) [3] | IC50 (FRNT neutralisation) [4] | Kd [5] | also measured
1 | antibody 316 (antibody, V domains shown) VH: not shown VL: QAVLTQPPSASGSPGQSVTISCTGTSSDVGGYNYVSWYQQHPGKAPKLMIYEVSKRPSGVPDRFSGSKSGNTASLTVSGLQAEDEADYYCSSYAGSNHWVFGGGTKLTVL | 0.018 µg/mL | 0.024 µg/mL | > 10 µg/mL | > 10 µg/mL | – | –
2 | antibody 398 (antibody, V domains shown, also called mAb 398) VH: QVQLVESGGGLVQPGGSLRLSCAASGFTVSSNYMTWVRQAPGKGLEWVSVIYSGGSTYYADSVKGRFTISRDNSKNTLYLQMNSLRADDTAVYYCARDSTADYDFWSGYYVGAFHIWGQGTMVTVSS VL: QTVLTQPASVSGSPGQSITISCTGTSSDVGGYNYVSWYQQHPGKAPKLMIYEVTKRPSGVPDRFSGSKSGNTASLTVSGLQAEDEADYYCSSYAGSNNWVFGGGTKLTVL | 0.091 µg/mL | 0.18 µg/mL | > 10 µg/mL | > 10 µg/mL | – | –
3 | Fab of antibody 398 (Fab, V domains shown) VH: QVQLVESGGGLVQPGGSLRLSCAASGFTVSSNYMTWVRQAPGKGLEWVSVIYSGGSTYYADSVKGRFTISRDNSKNTLYLQMNSLRADDTAVYYCARDSTADYDFWSGYYVGAFHIWGQGTMVTVSS VL: QTVLTQPASVSGSPGQSITISCTGTSSDVGGYNYVSWYQQHPGKAPKLMIYEVTKRPSGVPDRFSGSKSGNTASLTVSGLQAEDEADYYCSSYAGSNNWVFGGGTKLTVL | – | – | – | – | 1.18 nM | –
4 | antibody 278 (antibody, V domains shown, also called mAb 278) VH: QVQLVQSGAEVKKPGASVKVSCKASGYIFIRYGISWVRQAPGQGLEWMGWISANNGYTNYAQKLQGRVTMTTDTSTSTAYMELRSLRSDDTAVYYCARDGGILTGYLDYFDHWGQGTLVTVSS VL: DIQMTQSPSSLSASVGDRLTITCRASQSIASYLNWYQQKPGKAPKLLIYAASSLQSGVPSRFSGSGSGTDFTLTISSLQPEDFATYHCQQSYSTLGITFGPGTKVDIK | 0.014 µg/mL | 0.307 µg/mL | 0.16 µg/mL | 0.245 µg/mL | – | –
5 | Fab of chimeric antibody 253H165L (Fab, V domains shown, also called 253H165L Fab) VH: not shown VL: DIVMTQSPGTLSLSPGERATLSCRASQSVRSSYLAWYQQKPGQAPRLLIYGASRRGTGIPDRFSGSGSGTDFTLTISRLEPEDFAVYYCQQYGSSPWTFGQGTKVEIK | – | – | – | – | – | Neutralisation IC50 [6]: 5.22 nM; Kd [7]: 5.02 nM; % Occupancy [8]: 51.3%
6 | chimeric antibody 253H165L, full-length IgG (antibody, V domains shown, also called 253H165L IgG) VH: not shown VL: DIVMTQSPGTLSLSPGERATLSCRASQSVRSSYLAWYQQKPGQAPRLLIYGASRRGTGIPDRFSGSGSGTDFTLTISRLEPEDFAVYYCQQYGSSPWTFGQGTKVEIK | – | – | – | – | – | Neutralisation IC50 [6]: 0.03 nM; Kd [7]: 0.09 nM; % Occupancy [8]: 24.5%
7 | Fab of antibody 222 (Fab, V domains shown) VH: EVQLVESGGGLIQPGGSLRLSCAASGLTVSSNYMSWVRQAPGKGLEWVSVIYSGGSTFYADSVKGRFTISRDNSKNTLYLQMNSLGAEDTAVYYCARGEGSPGNWFDPWGQGTLVTVSS VL: DVVMTQSPGTLSLSPGERATLSCRASQSVPSSYLAWYQQKPGQAPRLLIYGASTRATGIPDRFSGSGSGTDFTLTISRLEPEDFAVYYCQHYDTSPRFGGGTKVDIK | – | – | – | – | 0.39 nM | –
8 | antibody 318 (antibody, V domains shown, also called mAb 318) VH: QVQLVQSGPEVKKPGTSVKVSCKASGFTLTSSAMQWVRQARGQRLEWIGWIVVGSGNTNYAQKFQERVTITRDMSTSTAYMELSSLRSEDTAVYYCAAGRGYNSDFDYWGQGTLVTVSS VL: AIRMTQSPGTLSLSPGERATLSCRASQSVSSSYLAWYQQRPGQAPRLLIYGTSSRATGIPDRFSGSGSGTDFTLTISRLEPEDFAVYYCQQYGYSVYTFGQGTKVDIK | 0.029 µg/mL | 0.185 µg/mL | 0.019 µg/mL | 0.083 µg/mL | – | –
9 | Fab of antibody 318 (Fab, V domains shown) VH: QVQLVQSGPEVKKPGTSVKVSCKASGFTLTSSAMQWVRQARGQRLEWIGWIVVGSGNTNYAQKFQERVTITRDMSTSTAYMELSSLRSEDTAVYYCAAGRGYNSDFDYWGQGTLVTVSS VL: AIRMTQSPGTLSLSPGERATLSCRASQSVSSSYLAWYQQRPGQAPRLLIYGTSSRATGIPDRFSGSGSGTDFTLTISRLEPEDFAVYYCQQYGYSVYTFGQGTKVDIK | – | – | – | – | 1.99 nM | –
10 | antibody 281 (antibody, V domains shown) VH: QVQLVESGGGLVQPGGSLRLSCAASGFPFSIYWMSWVRQAPGKGLEWVANIKQDGSEKYYVDSVKGRFTISRDNAKNSLYLHMNSLRGEDTAVYYCASRYYDFRPEAWFDYWGQGTLVTVSS VL: not shown | 0.005 µg/mL | 0.012 µg/mL | > 10 µg/mL | > 10 µg/mL | – | –
11 | Fab of antibody 281 (Fab, V domains shown) VH: QVQLVESGGGLVQPGGSLRLSCAASGFPFSIYWMSWVRQAPGKGLEWVANIKQDGSEKYYVDSVKGRFTISRDNAKNSLYLHMNSLRGEDTAVYYCASRYYDFRPEAWFDYWGQGTLVTVSS VL: not shown | – | – | – | – | 4.05 nM | –
12 | antibody 269 (antibody, V domains shown, also called mAb 269) VH: QVQLVESGGGLIQPGGSLRLSCAASGLTVNRNYMSWIRQAPGKGLEWVSVIYSGGSTFYADSVKGRFTISRDNSKNTLSLQMNSLRAEDTAIYYCARDFYEGSFDIWGQGTMVTVSS VL: AIQLTQSPSFLSASIGDRVTITCRASQGISSYLAWYQQKPGKAPKLLIYAASTLQSGVPSRFSGSGSGTEFTLTISSLQPEDFASYYCQQLNSYPAPVFGPGTKVDIK | 0.03 µg/mL | > 10 µg/mL | > 10 µg/mL | > 10 µg/mL | – | –
13 | Fab of antibody 269 (Fab, V domains shown, also called 269 Fab; COVOX-269) VH: QVQLVESGGGLIQPGGSLRLSCAASGLTVNRNYMSWIRQAPGKGLEWVSVIYSGGSTFYADSVKGRFTISRDNSKNTLSLQMNSLRAEDTAIYYCARDFYEGSFDIWGQGTMVTVSS VL: AIQLTQSPSFLSASIGDRVTITCRASQGISSYLAWYQQKPGKAPKLLIYAASTLQSGVPSRFSGSGSGTEFTLTISSLQPEDFASYYCQQLNSYPAPVFGPGTKVDIK | – | – | – | – | 45.4 nM | –
14 | Fab of antibody 58 (Fab, V domains shown) VH: QVQLVESGGGLVQPGRSLRLSCAASGFTFDDYAMHWVRQPPGKGLEWVSGVSWNSGTIGYADSVKGRFIISRDNAKNSLYLQMNSLKAEDTALYYCAREVGGTFGVLISREGGLDYWGQGTLVTVSS VL: SYELTQPPSVSVAPGQTARITCGGNTIGSKSVHWYQQRPGQAPVLVVYDDSDRPSGIPERFSGSNSGNTATLTISRVEAGDEADYYCQVWDSSSDRVVFGGGTKLTVL | – | – | – | – | 0.55 nM | –
15 | Fab of antibody 159 (Fab, V domains shown) VH: EVQLVESGGGVVQPGRSLRLSCAASGFTFSSYGMHWVRQAPGKGLEWVALISYDGGNRYYADSVKGRFTISRDNSKNTLYLQMNRLRAEDTAMYYCAKDRDDGWDWYYFMDVWGKGTTVTVSS VL: DIQLTQSPGTLSLSPGERATLSCRASQSISGNYLAWYQHKPGQAPRLLIYGASTRATGIPDRFSGSGSGTDFTLTISRLEPEDFAVYYCQQYGSSYTFGQGTKVEIK | – | – | – | – | – | Kd [7]: 0.29 nM
16 | Fab of antibody 175 (Fab, V domains shown) VH: EVQLVESGGGLIQPGGSLRLSCAASGLTVSRNYMSWVRQAPGKGLEWVSLIYSGGSTYYADSVKGRFTISRDNSKNTLYLQMNSLRAEDTAVYYCARDLRGEVWGQGTMVTVSS VL: not shown | – | – | – | – | 2.54 nM | –
